The Kd is the concentration at which binding is half-saturated. A high value points to lower affinity.

Here are results for 40 molecules from publication PMC9170038, “Crowdsourced RNA design discovers diverse, reversible, efficient, self-contained molecular switches”.

Numbering of substitutions follows the chain as printed. Bounds are passed on as bounds.

For this series, the target named is MS2 coat protein, dlFG mutant (Escherichia phage MS2, UniProt P03612, del68-81insG). The experiment in a line: 4 mM Mg2+; no ligand; RNA-MaP array; 100 mM Tris-HCl pH 7.5, 80 mM KCl, 4 mM MgCl2, 0.1 mg/mL BSA, 1 mM DTT, 0.01 mg/mL yeast tRNA, 0.01% Tween-20; protein 1.5 nM to 3 uM; 37 C (Table S3). Particulars: chain copies: 2; label: tethered by stalled RNA polymerase.

B1: Eterna 6428636 (Exclusion NG 3) (ssRNA)
RNA: AGGUAUCCUGAGAAAUUUCUCCACAUGAGGAUCACCCAUGUAGAGGAUAUCGACGCUGUGCGGUUCGAGAAGGCUACACUAAAA
On to B1, for which the affinity, expressed as Kd, was 5.95 nM.

B2: Eterna 5973727 (Sensor, turn-off variant 1) (ssRNA)
RNA: CCGUGCACGCUGCGCUCCUACAUGAGGAUCACCCAUGUGGUCCGGUGGCGUGGGUCGCCGGACUUGGCUCGUCUUGU
Regarding B2, the Kd is 92.3 nM.

B3: Eterna 6429242 (Inverted Exclusion NG 1) (ssRNA)
RNA: UCCGCAUCUGAGAAGGGAUCUCCGCGGAAGGGAUCAGGAUAUCGGACAUGAGGAUCACCCAUGUGCCGUUAAAGGACACCUGGU
For the molecule B3, binding was put at a Kd of 6.05 nM.

B4: Eterna 6407693 (Inverted Exclusion NG 2) (ssRNA)
RNA: UCAGGCUUCGAGAAGGACAUGAAUCGUAGCAUUGCUACGAUGAAUUAUACAUGAGGAUCACCCAUGUAGGAUAUCGGAGUCUGC
In the case of B4, the Kd stood at 5.71 nM.

B5: Eterna 1023 (Exclusion - FMN A) (ssRNA)
RNA: GUCCAUGUCCUCAUUCGUGCACUGGACACCAAGGAUAUGUUUAUGGACAGAAGGUGGUUGGGUCAGUGAUGUUGAUAUAAUUAGU
Take B5: the Kd is greater than 3000 nM.

B6: Eterna 7697814 (Same State - Tryptophan B) (ssRNA)
RNA: AGUAGUUGGACGGCCGCCACUGGAACAGCUUUGCCAAAGGCAGAGCACUAGAGUGAUGUUCUAGCUAGGACCGGGUCCAACUACA
Consider B6, for which the Kd was greater than 3000 nM.

B7: Eterna 7710185 (Exclusion - Tryptophan A) (ssRNA)
RNA: AGCUCGCAUCCUCUAGCGUCAAAGACGCCUCGAGGACCGGUACGGCCGCCACUCGAGAUGAGGAUCACCCAUCUCAAAGCGAGCA
With B7, the dissociation constant (Kd) amounted to 190 nM. This counts as sub-micromolar.

B8: Eterna 7710586 (Same State - Theophylline B) (ssRNA)
RNA: UCUGGUAUAUCUGAUACCAGAGUAUAGUAUCAAUUGCAUAUCCGCAGUGAUGUUGCGGAACUCCCUUGGCAGCAGAUCUAUCUCU
Turning to B8, the Kd is greater than 3000 nM.

B9: Eterna 6063240 (Exclusion 4) (ssRNA)
RNA: GUUUCGUCAGGAUAUGUGGCUUCGAUCGUGCGAAGAAGGCUACAGAAGGCACAUGAGGAUCACCCAUGUUCGUC
With B9, binding was characterised by a dissociation constant (Kd) of 34.2 nM.

B10: Eterna 7755228 (Same State - Theophylline A) (ssRNA)
RNA: AAAAUAAAUCAGUGAUGUUGGUAUCCGGAUACCAGCGAUAAUCAUCGCCCUUGGCAGCCGCGGACGUACAAAAUAAGUACGUCCU
Take B10: the equilibrium dissociation constant (Kd) is greater than 3000 nM.

B11: Eterna 6454516 (Inverted Same State NG 3) (ssRNA)
RNA: AAACACGGACAUGAGGAUCACCCAUGUGGCGAAAGCCUUGGAAGAAGGCCGAUUGCAAAGCAAUCGGAGGAUAUUCAUACCGUG
For B11, the dissociation constant Kd turned out to be 13.8 nM.

B12: Eterna 11606 (Exclusion 1) (ssRNA)
RNA: UUUUAACAUGAGGAUCACCCAUGUGAGGAUAUCGAUAUUUUUAUUAAUAUUAAUAAAACGAGAAGGCACAUUUU
In turn, B12 displayed an equilibrium dissociation constant (Kd) of 68 nM.

B13: Eterna 7697025 (Exclusion - Arginine B) (ssRNA)
RNA: UGAUAGGACAGAAGGAGCGGAAGUGAUGUUUCCAAUGGAUAAAAGGUGUCAAAGACACCCUUCCAGGUAGGUCGCUGUCCUAUCU
In turn, B13 had a Kd greater than 3000 nM.

B14: Eterna 7692142 (Exclusion - FMN A) (ssRNA)
RNA: UUAUAUACGAGUGAUGUUCGUUAUUUAUCAGAGGAUAUGCUUAAAUGCAGAAGGCUGUUUUUCUAUUUGAUAUUAAAUUUUAUAA
With B14, the Kd is greater than 3000 nM. Consider AAAACAUGAGGAUCACCCAUGUAAA (ssRNA) [Eterna 1 (MS2 control)], for which the Kd is 12.8 nM.

B15: Eterna 7684764 (Exclusion - Tryptophan B) (ssRNA)
RNA: AAUAAAAUCACGGCCGCCACUGAUGUUAAUAUUAGCAGUGAUGUUGCUAUGUCGUUUUUAUUUAACAGGACCGGGUGAAUAUUUA
Turning to B15, the dissociation constant (Kd) was greater than 3000 nM.

B16: Eterna 12594 (Exclusion 3) (ssRNA)
RNA: AACGAUCUAGGAUAUACAUGAGGAUCACCCAUGUAAGAGCCCAAACCAGGCUCCCUCUGUAGAAGGAGGUCAAA
B16 registered an equilibrium dissociation constant (Kd) of 44.9 nM.

B17: Eterna 7632613 (Same State - Theophylline B) (ssRNA)
RNA: GGGUGUGAUCCGGAUACCAGCGAACAUGAGGAUCACCCAUGUGACCUGAGAUCGGCUCUACGCCCUUGGCAGCCGCGGUCGCAGG
On to B17, for which the Kd is 12.2 nM. Compared with the last molecule, the Kd is about 3.7-fold lower.

B18: Eterna 7673438 (Same State - Arginine B) (ssRNA)
RNA: UGUAUGGACUGAAGGAGCGGGUUGAUAUCAUGAGGAUCACCCAUGGAAAAGGCGAAAGCCGCCCAGGUAGGUCGCAGUCCAUACU
Molecule B18 displayed a dissociation constant Kd of 20 nM.

B19: Eterna 7673392 (Same State - Arginine B) (ssRNA)
RNA: B18 RNA with U28A, A30C, C40U, U44G, G46U, G61A
As to B19, binding was characterised by a dissociation constant (Kd) of 279 nM.

B20: Eterna 6117498 (Same State NG 2) (ssRNA)
RNA: AAAACAUACCGAGGAUAUUCAUAUAAUAAAUAAACAUGAGGAUCACCCAUUUGGCAAAAGCCUAGGGAGAAGGCGGAAUGCUAA
Regarding B20, the equilibrium dissociation constant (Kd) is 974 nM. This Kd is about 3.5-fold higher than that of the molecule before.

B21: Eterna 7734801 (Same State - FMN B) (ssRNA)
RNA: UGUACCGAGUCAGGAUAUGUCGUCGAAAGACGAAUCCUAGUGAUGUUAGGGAUCUGCGAAAGCAGUGCAGAAGGGACUUGGUACU
On to B21, for which the equilibrium dissociation constant (Kd) is greater than 3000 nM.

B22: Eterna 6443507 (Inverted Exclusion NG 1) (ssRNA)
RNA: CGAACCAUGUAGAAGGCUGUCUUAAAAUAGGACAGAGGAUAUACAUGAGGAUCACCCAUGUACUCCUUUAAAAGGUUCGAAAUA
B22 registered a dissociation constant (Kd) of 5.01 nM.

B23: Eterna 7710481 (Same State - Theophylline B) (ssRNA)
RNA: GGAGGUUGGUGCGAUACCAGACCAGCAGUGAUGUUGCGCCAAAGUGAGUGAUGUUCACCGGUCCCUUGGCAGCGCAUUCCUUUAG
With B23, the dissociation constant (Kd) was greater than 3000 nM.

B24: Eterna 7730540 (Same State - FMN A) (ssRNA)
RNA: AGCGAGUGAUGUUCGCUGAUCAUGUGAAGUUAGGAUAUAUACUUGCAUAGAAGGAACUAUUACAUGACAUUAGAGGCAGUAGUUC
Consider B24, for which the Kd was greater than 3000 nM.

B25: Eterna 9265 (Exclusion 1) (ssRNA)
RNA: CCGUCACAUGAGGAUCACCCAUGUCAGGAUAUCUAUCAUAGCAUCGAAAGAUGCGGGUAGAGAAGGGACUAUCC
B25: the Kd was 19.2 nM.

B26: Eterna 7696031 (Exclusion - Tryptophan B) (ssRNA)
RNA: UGAUACCAGACGGCCGCCACUACACCAGUCAAAGACUGGAUGUGAAAUUCGACCAGUGAUGUUGGUAGGACCGGGUCUGGUAUCU
B26 had an equilibrium dissociation constant (Kd) greater than 3000 nM.

B27: Eterna 6398795 (Exclusion NG 1) (ssRNA)
RNA: CCUGCACCUCAAGGAUAUCCAGUCGAAACGACUGGAGAAGGUGAGGAUCACCCAUCUAGCCUGACGAAAGUCAGGCAUGCAGGA
B27 showed a Kd of 368 nM.

B28: Eterna 6447203 (Exclusion NG 2) (ssRNA)
RNA: AUCAGCUCGUCAGGAUAUACGUAACUGCGUCAGCAGUGUGGUAAGAUCACAUGAGGAUCACCCAUGUAGAAGGGACGAGCUGAU
Turning to B28, the Kd was determined as 51.7 nM. This Kd is about 7.1-fold lower than that of the molecule before.

B29: Eterna 6121278 (Same State NG 1) (ssRNA)
RNA: UCACUCAAGUUAGGAUAUGGAUCGGAAAACGAUCCAGAAGGAACAUGAAAACAUGAGCAUCAGCCAUGUUCCAGAAACGAGUGA
The molecule B29 yielded a Kd of 77.6 nM.

B30: Eterna 6121478 (Same State NG 1) (ssRNA)
RNA: B29 RNA with U1G, A29C, U46C, G47A, A49U, A66G, A84C
The molecule B30 registered a dissociation constant Kd of 463 nM. This Kd is about 6-fold higher than that of the molecule before.

B31: Eterna 15969 (Sensor v3, turn-off variant 2) (ssRNA)
RNA: AAGUACCGUCACGAUAGUGAUGGUACAACAAGCAAAUGUACAUGAGGAUCACCCAUGUCCUCUUUUGCUCGUCUUGU
B31 gave a Kd of 166 nM.

B32: Eterna 6150223 (Exclusion NG 3) (ssRNA)
RNA: AUUAUGACCGAGUUAUGCUUCAAAACAUGAGGAUCACCCAUGUAGGAUAUCAGCACGAUAAGUGCUGAGAAGGACAUCUCGGUC
As for B32, the dissociation constant Kd was 14.7 nM.

B33: Eterna 6421601 (Exclusion NG 3) (ssRNA)
RNA: GGUACUCAAAGAGUACCAAAACGAACAUGAGGAUCACCCAUGUAGGAUAUGCUACUCAAAGAGUAGCAGAAGGACAUGUGCCUA
Take B33: the affinity, expressed as Kd, was 18.5 nM.

B34: Eterna 7770355 (Exclusion - Tryptophan A) (ssRNA)
RNA: GGUGUUGUUUGUGCUGUUUUCCUCGUUCCUCGAGGACCGGUACGGCCGCCACUCGAGUGAUGUUUGGGUAGCGAUCCUUGUUAGU
B34: the Kd was greater than 3000 nM.

B35: Eterna 5503477 (Same State 1) (ssRNA)
RNA: AAGAAACAUGAGGAUCACCCAUGUAAGAUAAACACAGGAUAUGCGAAUAAAAUAAAUAAAGCAGAAGGGUGAAGAA
For B35, the Kd worked out at 51.2 nM.

B36: Eterna 6374082 (Exclusion NG 1) (ssRNA)
RNA: CGGUGACGUGUAGGAUAUGGCGCUGGGUUUUGGCCAGAAGGACAUGAGGAUCACCCAUGUGGUAGAGGGCUGGCGGCCGCCCGU
Molecule B36 returned a dissociation constant (Kd) of 15.7 nM.

B37: Eterna 7696419 (Exclusion - Arginine B) (ssRNA)
RNA: AAUGUACAGGGAAGGAGCGUAGUCCAGUGAUGUUGGAGUUAAAUACCAGUGAUGUUGGUUAUACAGGUAGGUCGCCCUAAAGUGC
Molecule B37 registered a dissociation constant (Kd) greater than 3000 nM.

B38: Eterna 7687503 (Exclusion - Theophylline A) (ssRNA)
RNA: UGUAUGUGUCAGCGAGUGAUGUUCGACGAUACCAGACUCGAUAGAGUCCCUUGGCAGCGUAAUGCAUGCCAAACUGGCACAUACU
On to B38, for which the dissociation constant Kd is greater than 3000 nM.

B39: Eterna 7692481 (Exclusion - Theophylline B) (ssRNA)
RNA: UUAGUUGAAAGUGAUACCAGACGAGUGAAGGGAAGAAAUUAAGUUGGAGUGAUGUUCCGCGUCCCUUGGCAGCACUUUGUAAUUU
As to B39, the Kd is greater than 3000 nM.
